Experimental findings from patent US20150329626A1 are described below.

Assay [1] deals with human Ang2 (human) (UniProt O15123). The assay is described as follows: competition ELISA: blocking of biotinylated human Ang2 binding to plate-coated human Tie2-Fc. Background: An ELISA detects its analyte on a solid surface through an enzyme-linked reagent.
The target of assay [2] is dog Ang2 (dog). The assay is described as follows: Biacore SPR, 37 C, n = 3, antibody captured on Protein A. (Surface plasmon resonance follows binding to a sensor surface in real time, without labels.)
Assay [3] has as its target mouse Ang2 (mouse) (UniProt O35608). Described as above.
For assay [4], the target named is human Ang2 (human) (UniProt O15123). The description is as above.
In assay [5] the target is cyno Ang2 (cynomolgus monkey). The assay is described as above.
The target of assay [6] is rabbit Ang2 (rabbit) (UniProt G1T9B3). The assay is described as above.
Assay [7] concerns the target human Ang2 (human) (UniProt O15123). The assay is described as follows: cell-based or functional assay.

Sequence of human Ang2 (human) (O15123 19-496 limits assumed): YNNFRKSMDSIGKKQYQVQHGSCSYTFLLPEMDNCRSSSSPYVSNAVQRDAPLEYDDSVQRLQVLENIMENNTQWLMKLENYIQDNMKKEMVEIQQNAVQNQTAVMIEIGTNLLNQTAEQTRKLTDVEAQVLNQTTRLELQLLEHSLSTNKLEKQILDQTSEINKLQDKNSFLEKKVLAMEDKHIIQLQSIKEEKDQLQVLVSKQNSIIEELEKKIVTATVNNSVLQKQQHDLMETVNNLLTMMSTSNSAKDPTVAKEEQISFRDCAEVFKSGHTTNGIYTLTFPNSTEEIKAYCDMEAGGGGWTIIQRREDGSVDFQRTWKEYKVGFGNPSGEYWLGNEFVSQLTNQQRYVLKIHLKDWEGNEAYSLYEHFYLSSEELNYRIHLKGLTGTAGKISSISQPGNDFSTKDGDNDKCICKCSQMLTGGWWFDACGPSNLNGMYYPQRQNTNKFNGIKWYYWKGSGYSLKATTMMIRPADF
Sequence of mouse Ang2 (mouse) (O35608 19-496 limits assumed): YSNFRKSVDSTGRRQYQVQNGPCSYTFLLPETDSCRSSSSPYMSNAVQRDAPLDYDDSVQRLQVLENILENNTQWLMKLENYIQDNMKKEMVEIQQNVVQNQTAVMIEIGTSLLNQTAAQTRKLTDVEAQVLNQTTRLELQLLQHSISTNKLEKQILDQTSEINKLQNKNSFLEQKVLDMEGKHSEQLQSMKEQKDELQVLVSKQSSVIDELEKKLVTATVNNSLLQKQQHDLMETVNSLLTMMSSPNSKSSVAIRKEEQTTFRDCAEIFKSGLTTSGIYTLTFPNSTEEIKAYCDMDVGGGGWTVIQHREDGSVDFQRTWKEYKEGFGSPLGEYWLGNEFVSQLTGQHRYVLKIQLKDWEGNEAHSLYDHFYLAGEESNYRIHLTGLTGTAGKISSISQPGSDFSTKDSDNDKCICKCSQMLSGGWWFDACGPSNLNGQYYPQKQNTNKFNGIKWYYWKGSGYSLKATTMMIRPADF
Sequence of rabbit Ang2 (rabbit) (G1T9B3 entry or part of it): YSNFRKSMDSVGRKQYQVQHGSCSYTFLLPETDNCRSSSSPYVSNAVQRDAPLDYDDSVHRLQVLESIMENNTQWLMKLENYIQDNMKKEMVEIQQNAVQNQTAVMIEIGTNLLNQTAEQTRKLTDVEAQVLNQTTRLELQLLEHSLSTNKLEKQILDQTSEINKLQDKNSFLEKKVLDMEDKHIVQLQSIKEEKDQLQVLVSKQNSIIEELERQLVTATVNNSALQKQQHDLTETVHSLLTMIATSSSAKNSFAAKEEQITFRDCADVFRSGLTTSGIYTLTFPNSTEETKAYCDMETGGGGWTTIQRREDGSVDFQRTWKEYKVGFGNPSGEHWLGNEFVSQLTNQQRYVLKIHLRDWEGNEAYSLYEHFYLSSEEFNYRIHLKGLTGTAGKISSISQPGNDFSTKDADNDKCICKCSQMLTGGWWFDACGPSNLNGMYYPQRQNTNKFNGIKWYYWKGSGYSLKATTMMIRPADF
Sequence of dog Ang2 (dog) (A0A8J8 19-495 limits assumed): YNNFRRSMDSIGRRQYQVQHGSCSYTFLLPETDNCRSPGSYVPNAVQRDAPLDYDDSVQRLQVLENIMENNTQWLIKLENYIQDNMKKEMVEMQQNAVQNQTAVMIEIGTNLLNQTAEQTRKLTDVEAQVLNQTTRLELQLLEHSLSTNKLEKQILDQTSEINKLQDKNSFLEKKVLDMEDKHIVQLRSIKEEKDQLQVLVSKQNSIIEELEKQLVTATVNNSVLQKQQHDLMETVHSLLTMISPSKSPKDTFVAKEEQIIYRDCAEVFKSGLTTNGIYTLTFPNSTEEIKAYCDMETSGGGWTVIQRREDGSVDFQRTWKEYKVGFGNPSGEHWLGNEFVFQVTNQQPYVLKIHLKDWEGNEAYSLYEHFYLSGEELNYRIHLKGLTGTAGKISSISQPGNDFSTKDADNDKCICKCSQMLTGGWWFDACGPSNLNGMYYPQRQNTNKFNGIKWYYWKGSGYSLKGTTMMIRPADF

B1: Ang2 antibody with the same HCDRs and LCDRs as the scFv polypeptide portion of Compound F (antibody, V domains shown)
VH: QVQLVQSGAEVKKPGSSVKVSCKASGYSFTDYNMVWVRQAPGQCLEWMGYIDPYNGGTGYNQKFEGRVTITADESTSTAYMELSSLRSEDTAVYYCARTRDRYDVWYFDVWGQGTLVTVSS
VL: DIVMTQSPDSLAVSLGERATINCKASQDVYIAVAWYQQKPGQPPKLLIYWASTRDTGVPDRFSGSGSGTDFTLTISSLQAEDVAVYYCHQYSSYPPTFGCGTKVEIK
modifications: CDRs only; frameworks, constant regions missing
On to B1, for which the IC50 (as a rule, the concentration needed to halve the response being measured) in assay [1] was determined as 0.027 nM. Also, the Kd (usually the concentration at which binding is half-saturated) was 0.14 nM in assay [2]; 0.109 nM in assay [3]; 0.08 nM in assay [4]; 0.107 nM in assay [5]; 0.21 nM in assay [6]. The koff – broadly, a measure of how fast the partners let go of each other – in assay [2] came to 0.00011 s⁻¹; in assay [3] it was 0.00011 s⁻¹; in assay [4], 7e-05 s⁻¹; in assay [5], 0.00029 s⁻¹; in assay [6] it was 0.00015 s⁻¹. Besides, the kon (as a rule, the second-order rate constant of association) in assay [2] amounted to 790000 M⁻¹ s⁻¹; in assay [3], 1e+06 M⁻¹ s⁻¹; in assay [4] it was 1e+06 M⁻¹ s⁻¹; in assay [5], 2.7e+06 M⁻¹ s⁻¹; in assay [6], 730000 M⁻¹ s⁻¹. Further, the inhibition of human Ang2 induced phospho-Tie2 in CHO-Tie2 cells (IC50) in assay [7] turned out to be 0.773 nM.
